From patent publication US20140161798A1 (Merck Sharp & Dohme, published 2014)
Values belong to the molecule of their own block, whether it stands above or below them.

Experiments:
[1] = molecular target: mouse liver LDL receptor (C57BL/6j mice) (mouse) (UniProt P35951); assay: cell-based or functional assay
[2] = molecular target: Purified PCSK9 carrying a C-terminal FLAG tag (UniProt Q8NBP7); assay: AlphaScreen PCSK9-FLAG/His-LDLR; non-specific control; log[antibody] ug/ml -1.9909
[3] = molecular target: Purified PCSK9 carrying a C-terminal FLAG tag (UniProt Q8NBP7); assay: AlphaScreen PCSK9-FLAG/His-LDLR; non-specific control; log[antibody] ug/ml 0.871832
[4] = molecular target: Purified PCSK9 carrying a C-terminal FLAG tag (UniProt Q8NBP7); assay: AlphaScreen PCSK9-FLAG/His-LDLR; non-specific control; log[antibody] ug/ml 1.826075
[5] = molecular target: Purified PCSK9 carrying a C-terminal FLAG tag (UniProt Q8NBP7); assay: AlphaScreen PCSK9-FLAG/His-LDLR; non-specific control; log[antibody] ug/ml -2.46802
[6] = molecular target: Purified PCSK9 carrying a C-terminal FLAG tag (UniProt Q8NBP7); assay: AlphaScreen PCSK9-FLAG/His-LDLR; non-specific control; log[antibody] ug/ml -0.55953
[7] = molecular target: Purified PCSK9 carrying a C-terminal FLAG tag (UniProt Q8NBP7); assay: AlphaScreen PCSK9-FLAG/His-LDLR; non-specific control; log[antibody] ug/ml -1.9909; remark: listed apart in the source
[8] = molecular target: Purified PCSK9 carrying a C-terminal FLAG tag (UniProt Q8NBP7); assay: AlphaScreen PCSK9-FLAG/His-LDLR; non-specific control; log[antibody] ug/ml -0.08241
[9] = molecular target: Purified PCSK9 carrying a C-terminal FLAG tag (UniProt Q8NBP7); assay: as above; remark: listed apart in the source
[10] = molecular target: Purified PCSK9 carrying a C-terminal FLAG tag (UniProt Q8NBP7); assay: AlphaScreen PCSK9-FLAG/His-LDLR; non-specific control; log[antibody] ug/ml -1.51377
[11] = molecular target: Purified PCSK9 carrying a C-terminal FLAG tag (UniProt Q8NBP7); assay: AlphaScreen PCSK9-FLAG/His-LDLR; non-specific control; log[antibody] ug/ml 1.348954
[12] = molecular target: Purified PCSK9 carrying a C-terminal FLAG tag (UniProt Q8NBP7); assay: as above; remark: listed apart in the source
[13] = molecular target: Purified PCSK9 carrying a C-terminal FLAG tag (UniProt Q8NBP7); assay: AlphaScreen PCSK9-FLAG/His-LDLR; non-specific control; log[antibody] ug/ml 0.394711
[14] = molecular target: Purified PCSK9 carrying a C-terminal FLAG tag (UniProt Q8NBP7); assay: AlphaScreen PCSK9-FLAG/His-LDLR; non-specific control; log[antibody] ug/ml -2.94514
[15] = molecular target: Purified PCSK9 carrying a C-terminal FLAG tag (UniProt Q8NBP7); assay: AlphaScreen PCSK9-FLAG/His-LDLR; non-specific control; log[antibody] ug/ml 1.826075; remark: listed apart in the source
[16] = molecular target: Purified PCSK9 carrying a C-terminal FLAG tag (UniProt Q8NBP7); assay: AlphaScreen PCSK9-FLAG/His-LDLR; non-specific control; log[antibody] ug/ml -1.51377; remark: listed apart in the source
[17] = molecular target: Purified PCSK9 carrying a C-terminal FLAG tag (UniProt Q8NBP7); assay: AlphaScreen PCSK9-FLAG/His-LDLR; non-specific control; log[antibody] ug/ml -1.03665
[18] = molecular target: Purified PCSK9 carrying a C-terminal FLAG tag (UniProt Q8NBP7); assay: AlphaScreen PCSK9-FLAG/His-LDLR; non-specific control; log[antibody] ug/ml 0.394711; remark: listed apart in the source
[19] = molecular target: Purified PCSK9 carrying a C-terminal FLAG tag (UniProt Q8NBP7); assay: AlphaScreen PCSK9-FLAG/His-LDLR; non-specific control; log[antibody] ug/ml -1.03665; remark: listed apart in the source
[20] = molecular target: Purified PCSK9 carrying a C-terminal FLAG tag (UniProt Q8NBP7); assay: AlphaScreen PCSK9-FLAG/His-LDLR; non-specific control; log[antibody] ug/ml -0.55953; remark: listed apart in the source
[21] = molecular target: Purified PCSK9 carrying a C-terminal FLAG tag (UniProt Q8NBP7); assay: AlphaScreen PCSK9-FLAG/His-LDLR; non-specific control; log[antibody] ug/ml -2.46802; remark: listed apart in the source
[22] = molecular target: Purified PCSK9 carrying a C-terminal FLAG tag (UniProt Q8NBP7); assay: AlphaScreen PCSK9-FLAG/His-LDLR; non-specific control; log[antibody] ug/ml 0.871832; remark: listed apart in the source
[23] = molecular target: T1, Purified PCSK9 carrying a C-terminal FLAG tag (UniProt Q8NBP7 31-692); assay: AlphaScreen, inhibition of PCSK9-Flag/His-tagged LDL receptor interaction, relative to no antibody
T1 construct: also called PCSK9-FLAG; PCSK9-Flag; not shown: C-terminal FLAG tag
T1 sequence (Q8NBP7 31-692 limits assumed): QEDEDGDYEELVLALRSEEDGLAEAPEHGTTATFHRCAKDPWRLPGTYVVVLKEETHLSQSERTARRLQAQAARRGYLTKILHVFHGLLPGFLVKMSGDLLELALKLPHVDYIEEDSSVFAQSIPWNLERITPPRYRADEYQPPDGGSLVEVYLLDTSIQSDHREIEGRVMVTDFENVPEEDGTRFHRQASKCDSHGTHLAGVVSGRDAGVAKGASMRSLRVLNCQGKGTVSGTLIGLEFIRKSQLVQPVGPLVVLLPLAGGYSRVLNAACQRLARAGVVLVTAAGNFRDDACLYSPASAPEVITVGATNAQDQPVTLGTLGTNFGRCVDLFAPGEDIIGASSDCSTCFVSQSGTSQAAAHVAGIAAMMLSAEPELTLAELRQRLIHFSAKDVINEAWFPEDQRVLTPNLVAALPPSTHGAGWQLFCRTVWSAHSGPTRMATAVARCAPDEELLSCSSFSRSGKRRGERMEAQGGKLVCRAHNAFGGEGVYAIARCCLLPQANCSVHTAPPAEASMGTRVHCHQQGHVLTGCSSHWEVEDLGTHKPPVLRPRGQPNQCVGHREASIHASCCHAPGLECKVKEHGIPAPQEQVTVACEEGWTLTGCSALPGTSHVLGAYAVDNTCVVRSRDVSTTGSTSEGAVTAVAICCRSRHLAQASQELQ
Description: (§1) This technique required that “donor” and “acceptor” beads be brought into proximity via protein—protein interaction, resulting in increased luminescence (Ullman et al., Proc. Nat. Acad. Sci. (1994) 91:5426-5430). […] About 2.5 μl of biotinylated anti-Flag-M2 antibody (1.8 μg/ml) was added and the mixture incubated for 1 hour. Afterward 5 μl of streptavidin donor bead and nickel chelate acceptor bead (1:1 mixture) was added and the assay incubated overnight. AlphaScreen signal (counts per second) was analyzed using an EnVision microplate reader (Perkin-Elmer). All data points were determined in triplicate. Assays were carried out at 23° C. in buffer containing 25 mM HEPES, 0.1 M NaCl, pH 7.4, 0.1% BSA. The inhibition assays were determined similarly with slight adjustments to assay volumes and protein concentrations.

[24] = molecular target: T1, Purified PCSK9 carrying a C-terminal …; assay: AlphaScreen, inhibition of PCSK9-Flag/His-tagged LDL receptor interaction
Description: as §1

Sequence of mouse liver LDL receptor (C57BL/6j mice) (mouse) (P35951 22-862): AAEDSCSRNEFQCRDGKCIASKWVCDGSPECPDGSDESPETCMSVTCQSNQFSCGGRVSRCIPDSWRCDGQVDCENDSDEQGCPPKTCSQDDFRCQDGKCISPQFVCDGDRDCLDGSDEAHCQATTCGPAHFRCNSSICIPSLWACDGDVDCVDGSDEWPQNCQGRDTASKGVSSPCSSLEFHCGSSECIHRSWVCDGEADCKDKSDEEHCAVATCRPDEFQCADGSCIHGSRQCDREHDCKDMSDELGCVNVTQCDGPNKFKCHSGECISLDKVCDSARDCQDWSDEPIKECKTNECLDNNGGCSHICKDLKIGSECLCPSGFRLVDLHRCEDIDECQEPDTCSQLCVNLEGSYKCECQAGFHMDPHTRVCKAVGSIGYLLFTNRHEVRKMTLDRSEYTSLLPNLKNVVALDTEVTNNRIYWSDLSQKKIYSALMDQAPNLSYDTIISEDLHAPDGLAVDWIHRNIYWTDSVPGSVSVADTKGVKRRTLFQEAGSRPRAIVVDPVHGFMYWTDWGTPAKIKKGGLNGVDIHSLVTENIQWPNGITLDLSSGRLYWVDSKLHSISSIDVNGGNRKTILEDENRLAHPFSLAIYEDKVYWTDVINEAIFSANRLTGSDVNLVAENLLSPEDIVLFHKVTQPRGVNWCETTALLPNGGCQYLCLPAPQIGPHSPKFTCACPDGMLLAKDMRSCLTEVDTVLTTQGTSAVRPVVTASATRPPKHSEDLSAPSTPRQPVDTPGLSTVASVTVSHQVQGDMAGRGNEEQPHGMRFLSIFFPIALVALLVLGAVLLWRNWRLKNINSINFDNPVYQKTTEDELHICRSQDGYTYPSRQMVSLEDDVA
Sequence of Purified PCSK9 carrying a C-terminal FLAG tag (UniProt Q8NBP7) (Q8NBP7 31-692 limits assumed): as the sequence (Q8NBP7 31-692 limits assumed) above

Molecule: human PCSK9 Protein (injected intravenously into mice) (from UniProt Q8NBP7 31-692)
Mean liver LDLR/GAPDH, mice given Saline and PCSK9 (western blot, lightest exposure) [1]: 0.081 AU

B1: 29C10 anti-PCSK9 antibody (IgG2a) (antibody, V domains shown)
VH: EVLLQQSVAELVRPGASVRLSCTASGFNIKDTYIHWVRQRPEQGLEWFGWIDPANGYTKYAPNFQGKATLTTDTSSNTAYLHLSSLTSEDSAIYYCARGYYRYYSLDYWGQGTSVTVSS
VL: DIQMTQTTSSLSASLGDRVTISCRASQDISNYLNWYQQKPDGTVKLLIYYSSRLHSGVPSRFSGRGSGTDYSLTISTLEQEDIATYFCQQGKTLPLTFGAGTKLELKR
% inhibition at 450 nM of antibody [23]: 71%
IC50 [24]: 13 nM

B2: 77D10 anti-PCSK9 antibody (IgG2b) (antibody, V domains shown)
VH: EVQLQQSGAELVRSGASVKLSCTTSGFNIKDYYIHWVKQRPEQGLEWIGWIDPENGDTEYAPKFQGKATMTADTSSNTAYLQLSSLTSADTAVYYCNAYYRYDDGTWFPYWGQGTLVTVSA
VL: DIQLTQSPASLSASVGETVTITCRASGNIHSYLAWYQQKQGKSPQFLVDNAKTLPDGVPSRFSVSGSGTQYSLKINSLQPEDFGTYYCQHFWNTPWTFGGGTKLEIKR
% inhibition at 450 nM of antibody [23]: 62%
IC50 [24]: 38 nM

B3: 75B9 anti-PCSK9 antibody (IgG2a) (antibody, V domains shown)
VH: EVQLQQSGADLVKPGASVKLSCTASGFNIKDTYIHWVKQRPEQGLEWIGRIDPANGHTEYDPKFQGRATLTTDTSSNTAYLQLFSLTSEDSAVYFCARSYYGSIFAYWGQGTLVTVSA
VL: QIVLTQSPAIMSASPGEKVTISCSASSSVSYLFWYQQKPGSSPKPWIFRTSYLASGVPARFSGSGSGTSFSLTISSMEAEDAATYYCHQYHTYPPTFGGGTKLEIKR
% inhibition at 450 nM of antibody [23]: 100%
IC50 [24]: 0.5 nM

B4: 11B5 anti-PCSK9 antibody (IgG2a) (antibody, V domains shown)
VH: EVQLQQSGAELVKPGASVTLSCTASGFNIKDTYMHWVNQRPEQGLVWIGRIDPANGHTEYDPKFQDKATITTDTSSNTAYLHLSSLTSGDTAVYYCARSYFGSIFAYWGQGTLVTVSA
VL: QIVLTQSPAIMSASPGEKVTISCSASSSVSYLYWYQQKPGSSPKPWIFRSSHRASGVPARFSGSGSGTSYSLTISSMEAEDAATYYCHQYQSYPPTFGGGTKLEIKR
% inhibition at 450 nM of antibody [23]: 100%
IC50 [24]: 0.4 nM

Further lines, results first:

AlphaScreen mean counts [2]: 80700 counts
AlphaScreen mean counts [3]: 79600 counts
AlphaScreen mean counts [4]: 61900 counts
AlphaScreen mean counts [5]: 140000 counts
AlphaScreen mean counts [6]: 139000 counts
AlphaScreen mean counts [7]: 135000 counts
AlphaScreen mean counts [8]: 140000 counts
AlphaScreen mean counts [9]: 82800 counts
AlphaScreen mean counts [10]: 83100 counts
AlphaScreen mean counts [11]: 74400 counts
AlphaScreen mean counts [12]: 135000 counts
AlphaScreen mean counts [13]: 79600 counts
AlphaScreen mean counts [14]: 82100 counts
AlphaScreen mean counts [15]: 114000 counts
AlphaScreen mean counts [16]: 134000 counts
AlphaScreen mean counts [17]: 127000 counts
AlphaScreen mean counts [18]: 136000 counts
AlphaScreen mean counts [19]: 84400 counts
AlphaScreen mean counts [20]: 88100 counts
AlphaScreen mean counts [21]: 78200 counts
AlphaScreen mean counts [22]: 140000 counts
Molecule: non-specific IgG control (antibody)

% Change of mean liver LDLR/GAPDH against saline only, mice given Saline and PCSK9 (darker exposure) [1]: -78.8%
% Change of mean liver LDLR/GAPDH against saline only, mice given Saline and PCSK9 (lightest exposure) [1]: -82%
Mean liver LDLR/GAPDH, mice given Saline and PCSK9 (western blot, darker exposure of LDLR panel) [1]: 0.123 AU
Molecule: human PCSK9 Protein (injected intravenously into mice) (from UniProt Q8NBP7 31-692) (enzyme)
